Experimental data from patent US6972319B1, “Pituitary adenylate cyclase activating peptide (PACAP)receptor 3 (R3) agonists and their pharmacological methods of use” (priority 1999, dated 2005).
No end group written: not given here.

Molecular target: T1, PACAP-R3 (human, UniProt P41587 24-438)
T1 sequence (looked up): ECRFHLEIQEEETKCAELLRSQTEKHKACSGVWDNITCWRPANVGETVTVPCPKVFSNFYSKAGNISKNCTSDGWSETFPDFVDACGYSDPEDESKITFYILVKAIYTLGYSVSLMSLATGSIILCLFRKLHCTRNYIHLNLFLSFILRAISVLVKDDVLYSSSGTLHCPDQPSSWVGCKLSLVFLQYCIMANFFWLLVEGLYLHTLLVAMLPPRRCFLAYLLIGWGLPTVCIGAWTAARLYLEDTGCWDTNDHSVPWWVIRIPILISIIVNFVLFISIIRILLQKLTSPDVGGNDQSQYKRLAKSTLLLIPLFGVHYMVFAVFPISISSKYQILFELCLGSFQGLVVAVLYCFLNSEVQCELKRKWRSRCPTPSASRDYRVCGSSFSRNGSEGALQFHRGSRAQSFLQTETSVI
Test: cell-based or functional assay

Row | R3 EC50 | R3 Selectivity | Binder
1 | 0.26 nM | 90 | HSDAVFTDNYTRLRKQMAAKKYLNSIKK [R3P51]
2 | 2 nM | > 50 | Ac-HSDAVFTENYTKLRKQLAAKKYLNDLKKGGT-NH2 [R3P1]
3 | 0.4 nM | > 250 | HSDAVFTDNYTRLRKQMAAKKYLNSIKKKRY [R3P52]
4 | 0.2 nM | 2500 | HSDAVFTDNYTRLRKQMAAKKYLNSIKKKR [R3P53]
5 | 0.5 nM | > 200 | HSDAVFTDNYTRLRKQMAAKKYLNSIKKK [R3P54]
6 | 0.17 nM | 280 | HSDAVFTDNYTRLRKQMAAKKYLNSIKNKRY [R3P55]
7 | 0.4 nM | 100 | HSDAVFTDNYTRLRKQMAVKKYLNSIKKKRY [R3P56]
8 | 0.23 nM | 190 | HSDAVFTDNYTRLRKQMAVKKYLNSIKKKR [R3P57]
9 | 0.32 nM | 170 | HSDAVFTDNYTRLRKQMAVKKYLNSIKKK [R3P58]
10 | 0.15 nM | 70 | HSDAVFTDNYTRLRKQMAVKKYLNSIKNKRY [R3P59]
11 | 1 nM | 120 | HSDAVFTDNYTRLRKQVAAKKYLQSIKK [R3P60]
12 | 0.8 nM | 140 | HSDAVFTDNYTRLRKQIAAKKYLQTIKK [R3P61]
13 | 3 nM | > 300 | Ac-HSDAVFTENYTKLRKQLAAKKYLNDLKKGGT (ends and bridges not checked) [R3P2]
14 | 80 nM | 3 | HSDGIFTESYSRYRKQMAVKKYLAALKKKRYKQRVKNK [R3P6]
15 | 4 nM | 0.5 | HSDAVFTENYTRLRKQMAVKKYLNSLKK-NH2 [R3P7]
16 | 10 nM | 1.4 | HSDGIFTDSYSRYRKQMAVKKYLAAVKQGGT-NH2 [R3P16]
17 | 4 nM | 2 | HSDGIFTDSYSRYRKQMAVKKYLAAVKKYLAAVRHG-NH2 [R3P17]
18 | 0.43 nM | 23 | HSDAVFTDNYTRLRKQLAAKKYLNDILKGGT [R3P23]
19 | 0.8 nM | 8 | HSDAVFTDNYTRLRKQLAAKKYLNDILNGGT [R3P27]
20 | 7 nM | 1 | HSDAVFTDNYTRLRKQLAVKKYLNDILKGGT [R3P28]
21 | 4 nM | 18 | HSDGIFTDSYSRYRKQLAAKKYLADVKKGGT [R3P37]
